This is an account of results in paper PMC10638432, “Biodistribution and function of coupled polymer-DNA origami nanostructures”.

The target in the data set is recombinant human TNF-alpha (biotinylated, R&D Systems BT210) (human, UniProt P01375 77-233). In words: flow cytometry (FACS) bead binding; TT linker did not affect binding; PBS-/- (no Ca/Mg) with 0.005% Tween-20, 1 h at 37 C, biotinylated TNFa on streptavidin magnetic beads; pH not stated. To be noted: protein: commercial; tags: biotin; chain copies: 3; label: 5' ATTO647N.
recombinant human TNF-alpha (biotinylated, R&D Systems BT210), sequence (P01375 77-233): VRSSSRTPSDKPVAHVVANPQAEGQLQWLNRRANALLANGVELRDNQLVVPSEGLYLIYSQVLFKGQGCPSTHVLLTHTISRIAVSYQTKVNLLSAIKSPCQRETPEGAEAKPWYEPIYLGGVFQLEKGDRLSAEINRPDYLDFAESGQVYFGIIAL

As to TTTGGTGGATGGCGCAGTCGGCGACAA (ssDNA) [TNFa aptamer polyT linker (hTNFa long rod aptamer)], the binding result was “binds”.
